Reference: US20150125463A1

Columns and labels:
[1] = target: human PD-L1 (on cells or in tissue) (human) (UniProt Q9NZQ7); assay: IHC histoscore (0-300), FFPE tumor RCC sample 1164619B; 5H1 at 5 ug/ml
[2] = target: human PD-L1 (on cells or in tissue) (human) (UniProt Q9NZQ7); assay: IHC histoscore (0-300), FFPE tumor NSCLC sample 1080790; 5H1 at 5 ug/ml
[3] = target: human PD-L1 (on cells or in tissue) (human) (UniProt Q9NZQ7); assay: IHC histoscore (0-300), FFPE tumor NSCLC sample 1080754B; 5H1 at 5 ug/ml
[4] = target: human PD-L1 (on cells or in tissue) (human) (UniProt Q9NZQ7); assay: IHC histoscore (0-300), FFPE tumor NSCLC sample 1080993B; 5H1 at 5 ug/ml
[5] = target: human PD-L1 (on cells or in tissue) (human) (UniProt Q9NZQ7); assay: IHC histoscore (0-300), FFPE tumor NSCLC sample 1080766B; 5H1 at 5 ug/ml
[6] = target: human PD-L1 (on cells or in tissue) (human) (UniProt Q9NZQ7); assay: IHC histoscore (0-300), FFPE tumor Mel sample 1168657B; 5H1 at 5 ug/ml
[7] = target: human PD-L1 (on cells or in tissue) (human) (UniProt Q9NZQ7); assay: IHC histoscore (0-300), FFPE tumor RCC sample 1167809B; 5H1 at 5 ug/ml
[8] = target: human PD-L1 (on cells or in tissue) (human) (UniProt Q9NZQ7); assay: IHC histoscore (0-300), FFPE tumor Mel sample T030668; 5H1 at 5 ug/ml
[9] = target: human PD-L1 (on cells or in tissue) (human) (UniProt Q9NZQ7); assay: IHC histoscore (0-300), FFPE tumor Mel sample T980744; 5H1 at 5 ug/ml
[10] = target: human PD-L1 (antigen of the surface plasmon resonance analysis) (human) (UniProt Q9NZQ7); assay: surface plasmon resonance; KD given for clone 28-8 alone
[11] = target: human PD-L1 (on cells or in tissue) (human) (UniProt Q9NZQ7); assay: IHC histoscore (0-300), FFPE tumor NSCLC sample 1080993B; 28-8 at 2 ug/ml
[12] = target: human PD-L1 (on cells or in tissue) (human) (UniProt Q9NZQ7); assay: IHC histoscore (0-300), FFPE tumor Mel sample T030668; 28-8 at 2 ug/ml
[13] = target: human PD-L1 (on cells or in tissue) (human) (UniProt Q9NZQ7); assay: IHC histoscore (0-300), FFPE tumor Mel sample T980744; 28-8 at 2 ug/ml
[14] = target: human PD-L1 (on cells or in tissue) (human) (UniProt Q9NZQ7); assay: IHC histoscore (0-300), FFPE tumor Mel sample T980747; 28-8 at 2 ug/ml
[15] = target: human PD-L1 (on cells or in tissue) (human) (UniProt Q9NZQ7); assay: IHC histoscore (0-300), FFPE tumor NSCLC sample 1080754B; 28-8 at 2 ug/ml
[16] = target: human PD-L1 (on cells or in tissue) (human) (UniProt Q9NZQ7); assay: IHC histoscore (0-300), FFPE tumor NSCLC sample 1080790; 28-8 at 2 ug/ml
[17] = target: human PD-L1 (on cells or in tissue) (human) (UniProt Q9NZQ7); assay: IHC histoscore (0-300), FFPE tumor RCC sample 1167809B; 28-8 at 2 ug/ml
[18] = target: human PD-L1 (on cells or in tissue) (human) (UniProt Q9NZQ7); assay: IHC histoscore (0-300), FFPE tumor Mel sample 1168657B; 28-8 at 2 ug/ml
[19] = target: human PD-L1 (on cells or in tissue) (human) (UniProt Q9NZQ7); assay: IHC histoscore (0-300), FFPE tumor NSCLC sample 1080766B; 28-8 at 2 ug/ml
[20] = target: human PD-L1 (on cells or in tissue) (human) (UniProt Q9NZQ7); assay: IHC histoscore (0-300), FFPE tumor RCC sample 1164619B; 28-8 at 2 ug/ml

Sequence of human PD-L1 (on cells or in tissue) (human) (Q9NZQ7 19-290): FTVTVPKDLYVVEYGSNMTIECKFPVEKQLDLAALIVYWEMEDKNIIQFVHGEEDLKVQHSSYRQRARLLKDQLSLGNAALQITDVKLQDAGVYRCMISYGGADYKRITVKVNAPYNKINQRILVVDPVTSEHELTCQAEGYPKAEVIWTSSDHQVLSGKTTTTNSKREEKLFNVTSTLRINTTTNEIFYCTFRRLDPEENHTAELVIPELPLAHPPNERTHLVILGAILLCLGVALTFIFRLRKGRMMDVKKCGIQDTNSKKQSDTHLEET
Sequence of human PD-L1 (antigen of the surface plasmon resonance analysis) (human) (Q9NZQ7 19-238 limits assumed): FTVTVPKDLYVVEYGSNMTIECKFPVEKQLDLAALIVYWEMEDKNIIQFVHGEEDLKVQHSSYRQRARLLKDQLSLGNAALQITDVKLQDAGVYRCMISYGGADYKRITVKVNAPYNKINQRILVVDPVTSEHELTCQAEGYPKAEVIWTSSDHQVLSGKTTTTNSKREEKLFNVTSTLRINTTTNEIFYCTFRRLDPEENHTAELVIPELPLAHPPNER

| Substance | Histoscore Average [1] | Histoscore Average [2] | Histoscore Average [3] | Histoscore Average [4] | Histoscore Average [5] | Histoscore Average [6] | Histoscore Average [7] | Histoscore Average [8] | Histoscore Average [9] | Kd [10] [nM] | Histoscore Average [11] | Histoscore Average [12] | Histoscore Average [13] | Histoscore Average [14] | Histoscore Average [15] | Histoscore Average [16] | Histoscore Average [17] | Histoscore Average [18] | Histoscore Average [19] | Histoscore Average [20] |
| --- | --- | --- | --- | --- | --- | --- | --- | --- | --- | --- | --- | --- | --- | --- | --- | --- | --- | --- | --- | --- |
| murine anti-human PD-L1 mAb 5H1 (antibody) | 4 | 40 | 245 | 12 | 103 | 0 | 108 | 98 | 98 | – | – | – | – | – | – | – | – | – | – | – |
| rabbit anti-human PD-L1 mAb 28-8 (antibody) | – | – | – | – | – | – | – | – | – | 0.1 | 16 | 113 | 123 | 9 | 261 | 37 | 125 | 0 | 130 | 4 |
